Laboratory results as given in PMC8823246 (Journal for Immunotherapy of Cancer, 2022).

Target: T1, recombinant human VISTA-Fc protein (human, UniProt Q9H7M9 33-194)
T1 sequence (looked up): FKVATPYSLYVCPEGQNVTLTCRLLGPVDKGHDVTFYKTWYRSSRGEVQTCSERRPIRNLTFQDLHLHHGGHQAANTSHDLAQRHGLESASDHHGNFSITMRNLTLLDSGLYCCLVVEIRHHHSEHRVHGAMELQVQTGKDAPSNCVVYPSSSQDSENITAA
Assay: ELISA

B1: recombinant human VSIG3-Fc (Fc fusion, UniProt Q5DX21 23-241, looked up)
chain: LEVSESPGSIQVARGQPAVLPCTFTTSAALINLNVIWMVTPLSNANQPEQVILYQGGQMFDGAPRFHGRVGFTGTMPATNVSIFINNTQLSDTGTYQCLVNNLPDIGGRNIGVTGLTVLVPPSAPHCQIQGSQDIGSDVILLCSSEEGIPRPTYLWEKLDNTLKLPPTATQDQVQGTVTIRNISALSSGLYQCVASNAIGTSTCLLDLQVISPQPRNIG
modifications: biotin (biotinylated using Invitrogen kit #21455) in the inhibition assay
EC50: 24 nM
